Target: KaiB labeled with 6-iodoacetamidofluorescein (KaiB-6IAF) (Synechococcus elongatus) (UniProt Q79PF5)
Assay: other fluorescence titration

Sequence of UniProt Q79PF5 (Q79PF5 whole entry): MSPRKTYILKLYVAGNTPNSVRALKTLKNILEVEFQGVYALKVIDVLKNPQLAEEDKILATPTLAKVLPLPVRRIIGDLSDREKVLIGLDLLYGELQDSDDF

decrease of KaiB-6IAF fluorescence intensity at 3.5 uM KaiC: 60%
maximal quenching of KaiB-6IAF: 40%
B1: KaiC (natural protein)
chain: MTSAEMTSPNNNSEHQAIAKMRTMIEGFDDISHGGLPIGRSTLVSGTSGTGKTLFSIQFLYNGIIEFDEPGVFVTFEETPQDIIKNARSFGWDLAKLVDEGKLFILDASPDPEGQEVVGGFDLSALIERINYAIQKYRARRVSIDSVTSVFQQYDASSVVRRELFRLVARLKQIGATTVMTTERIEEYGPIARYGVEEFVSDNVVILRNVLEGERRRRTLEILKLRGTSHMKGEYPFTITDHGINIFPLGAMRLTQRSSNVRVSSGVVRLDEMCGGGFFKDSIILATGATGTGKTLLVSRFVENACANKERAILFAYEESRAQLLRNAYSWGMDFEEMERQNLLKIVCAYPESAGLEDHLQIIKSEINDFKPARIAIDSLSALARGVSNNAFRQFVIGVTGYAKQEEITGLFTNTSDQFMGAHSITDSHISTITDTIILLQYVEIRGEMSRAINVFKMRGSWHDKAIREFMISDKGPDIKDSFRNFERIISGSPTRITVDEKSELSRIVRGVQEKGPES

Source: paper doi:10.1101/2024.10.13.617916
